Measurements published in US12679878B2, “CRF2 receptor agonists and their use in therapy” (SANOFI, priority 2020, dated 2026).
Starred links: 1 amine or outer side, 2 acyl side, 3 side chain; linkers in the order of their positions; H or OH if unused. Non-standard residues stand in square brackets, D forms with d. Groups on a side chain read outwards from the residue. No end group written: not given here. *: point of attachment. C20 diacid = O=C(O)CCCCCCCCCCCCCCCCCCC(=O)*; C18 diacid = O=C(O)CCCCCCCCCCCCCCCCC(=O)*; γGlu = O=C(O)[C@H](CCC(=O)[*:2])N[*:1]; Palmitoyl = CCCCCCCCCCCCCCCC(=O)*; AEEA = NCCOCCOCC(=O)O; Aib = CC(C)(N)C(=O)O

These binders were tested against human corticotropin-releasing factor 2α (CRF2 α receptor) (human), Q13324 (assay: cell-based or functional assay).
human corticotropin-releasing factor 2α (CRF2 α receptor) (human), Q13324, sequence (Q13324 20-411): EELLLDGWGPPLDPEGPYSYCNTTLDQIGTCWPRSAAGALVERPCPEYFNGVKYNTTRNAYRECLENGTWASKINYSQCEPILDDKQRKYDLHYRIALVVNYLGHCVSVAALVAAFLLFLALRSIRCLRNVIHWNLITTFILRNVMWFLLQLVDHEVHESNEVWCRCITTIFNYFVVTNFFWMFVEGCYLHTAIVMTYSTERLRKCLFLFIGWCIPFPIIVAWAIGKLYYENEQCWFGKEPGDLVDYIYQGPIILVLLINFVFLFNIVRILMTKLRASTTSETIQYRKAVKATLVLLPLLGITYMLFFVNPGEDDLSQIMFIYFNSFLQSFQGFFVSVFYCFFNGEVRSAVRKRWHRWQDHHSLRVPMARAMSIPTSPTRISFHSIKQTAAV

Binder | EC50 [nM], 0% HSA | EC50 [nM], 0.1% HSA
IVLSLD[dV]PIKLK([γGlu-C18 diacid])QILLKQARQK[Aib]QRAQAEKNKRILERV-NH2 (N-terminus assumed; SMILES CC[C@H](C)[C@H](N)C(=O)N[C@H](C(=O)N[C@@H](CC(C)C)C(=O)N[C@@H](CO)C(=O)N[C@@H](CC(C)C)C(=O)N[C@@H](CC(=O)O)C(=O)N[C@@H](C(=O)N1CCC[C@H]1C(=O)N[C@H](C(=O)N[C@@H](CCCCN)C(=O)N[C@@H](CC(C)C)C(=O)N[C@@H](CCCCNC(=O)CC[C@H](NC(=O)CCCCCCCCCCCCCCCCC(=O)O)C(=O)O)C(=O)N[C@@H](CCC(N)=O)C(=O)N[C@H](C(=O)N[C@@H](CC(C)C)C(=O)N[C@@H](CC(C)C)C(=O)N[C@@H](CCCCN)C(=O)N[C@@H](CCC(N)=O)C(=O)N[C@@H](C)C(=O)N[C@@H](CCCNC(=N)N)C(=O)N[C@@H](CCC(N)=O)C(=O)N[C@@H](CCCCN)C(=O)NC(C)(C)C(=O)N[C@@H](CCC(N)=O)C(=O)N[C@@H](CCCNC(=N)N)C(=O)N[C@@H](C)C(=O)N[C@@H](CCC(N)=O)C(=O)N[C@@H](C)C(=O)N[C@@H](CCC(=O)O)C(=O)N[C@@H](CCCCN)C(=O)N[C@@H](CC(N)=O)C(=O)N[C@@H](CCCCN)C(=O)N[C@@H](CCCNC(=N)N)C(=O)N[C@H](C(=O)N[C@@H](CC(C)C)C(=O)N[C@@H](CCC(=O)O)C(=O)N[C@@H](CCCNC(=N)N)C(=O)N[C@H](C(N)=O)C(C)C)[C@@H](C)CC)[C@@H](C)CC)[C@@H](C)CC)C(C)C)C(C)C) [SEQ ID NO: 180] | 0.05 nM | 1.74 nM
IVLSLD[dV]PIKLK([γGlu-C18 diacid])QILLKQERQKKQRQQAEKNKQILAQV-NH2 (N-terminus assumed; SMILES CC[C@H](C)[C@H](N)C(=O)N[C@H](C(=O)N[C@@H](CC(C)C)C(=O)N[C@@H](CO)C(=O)N[C@@H](CC(C)C)C(=O)N[C@@H](CC(=O)O)C(=O)N[C@@H](C(=O)N1CCC[C@H]1C(=O)N[C@H](C(=O)N[C@@H](CCCCN)C(=O)N[C@@H](CC(C)C)C(=O)N[C@@H](CCCCNC(=O)CC[C@H](NC(=O)CCCCCCCCCCCCCCCCC(=O)O)C(=O)O)C(=O)N[C@@H](CCC(N)=O)C(=O)N[C@H](C(=O)N[C@@H](CC(C)C)C(=O)N[C@@H](CC(C)C)C(=O)N[C@@H](CCCCN)C(=O)N[C@@H](CCC(N)=O)C(=O)N[C@@H](CCC(=O)O)C(=O)N[C@@H](CCCNC(=N)N)C(=O)N[C@@H](CCC(N)=O)C(=O)N[C@@H](CCCCN)C(=O)N[C@@H](CCCCN)C(=O)N[C@@H](CCC(N)=O)C(=O)N[C@@H](CCCNC(=N)N)C(=O)N[C@@H](CCC(N)=O)C(=O)N[C@@H](CCC(N)=O)C(=O)N[C@@H](C)C(=O)N[C@@H](CCC(=O)O)C(=O)N[C@@H](CCCCN)C(=O)N[C@@H](CC(N)=O)C(=O)N[C@@H](CCCCN)C(=O)N[C@@H](CCC(N)=O)C(=O)N[C@H](C(=O)N[C@@H](CC(C)C)C(=O)N[C@@H](C)C(=O)N[C@@H](CCC(N)=O)C(=O)N[C@H](C(N)=O)C(C)C)[C@@H](C)CC)[C@@H](C)CC)[C@@H](C)CC)C(C)C)C(C)C) [SEQ ID NO: 181] | 1.18 nM | 15.3 nM
IVLSLD[dV]PIKLK([AEEA-AEEA-γGlu-γGlu-C20 diacid])QILLKQERQKKQRQQAEKNKQILAQV-NH2 (N-terminus assumed; SMILES CC[C@H](C)[C@H](N)C(=O)N[C@H](C(=O)N[C@@H](CC(C)C)C(=O)N[C@@H](CO)C(=O)N[C@@H](CC(C)C)C(=O)N[C@@H](CC(=O)O)C(=O)N[C@@H](C(=O)N1CCC[C@H]1C(=O)N[C@H](C(=O)N[C@@H](CCCCN)C(=O)N[C@@H](CC(C)C)C(=O)N[C@@H](CCCCNC(=O)COCCOCCNC(=O)COCCOCCNC(=O)CC[C@H](NC(=O)CC[C@H](NC(=O)CCCCCCCCCCCCCCCCCCC(=O)O)C(=O)O)C(=O)O)C(=O)N[C@@H](CCC(N)=O)C(=O)N[C@H](C(=O)N[C@@H](CC(C)C)C(=O)N[C@@H](CC(C)C)C(=O)N[C@@H](CCCCN)C(=O)N[C@@H](CCC(N)=O)C(=O)N[C@@H](CCC(=O)O)C(=O)N[C@@H](CCCNC(=N)N)C(=O)N[C@@H](CCC(N)=O)C(=O)N[C@@H](CCCCN)C(=O)N[C@@H](CCCCN)C(=O)N[C@@H](CCC(N)=O)C(=O)N[C@@H](CCCNC(=N)N)C(=O)N[C@@H](CCC(N)=O)C(=O)N[C@@H](CCC(N)=O)C(=O)N[C@@H](C)C(=O)N[C@@H](CCC(=O)O)C(=O)N[C@@H](CCCCN)C(=O)N[C@@H](CC(N)=O)C(=O)N[C@@H](CCCCN)C(=O)N[C@@H](CCC(N)=O)C(=O)N[C@H](C(=O)N[C@@H](CC(C)C)C(=O)N[C@@H](C)C(=O)N[C@@H](CCC(N)=O)C(=O)N[C@H](C(N)=O)C(C)C)[C@@H](C)CC)[C@@H](C)CC)[C@@H](C)CC)C(C)C)C(C)C) [SEQ ID NO: 177] | 0.07 nM | 5.19 nM

Second part, the binder after the results:

EC50 [nM], 0% HSA | EC50 [nM], 0.1% HSA | Binder
0.03 nM | 1.88 nM | IVLSLD[dV]PIKLK([γGlu-C18 diacid])QILLKQERQK[Aib]QREQAEKNKQILAQV-NH2 (N-terminus assumed; SMILES CC[C@H](C)[C@H](N)C(=O)N[C@H](C(=O)N[C@@H](CC(C)C)C(=O)N[C@@H](CO)C(=O)N[C@@H](CC(C)C)C(=O)N[C@@H](CC(=O)O)C(=O)N[C@@H](C(=O)N1CCC[C@H]1C(=O)N[C@H](C(=O)N[C@@H](CCCCN)C(=O)N[C@@H](CC(C)C)C(=O)N[C@@H](CCCCNC(=O)CC[C@H](NC(=O)CCCCCCCCCCCCCCCCC(=O)O)C(=O)O)C(=O)N[C@@H](CCC(N)=O)C(=O)N[C@H](C(=O)N[C@@H](CC(C)C)C(=O)N[C@@H](CC(C)C)C(=O)N[C@@H](CCCCN)C(=O)N[C@@H](CCC(N)=O)C(=O)N[C@@H](CCC(=O)O)C(=O)N[C@@H](CCCNC(=N)N)C(=O)N[C@@H](CCC(N)=O)C(=O)N[C@@H](CCCCN)C(=O)NC(C)(C)C(=O)N[C@@H](CCC(N)=O)C(=O)N[C@@H](CCCNC(=N)N)C(=O)N[C@@H](CCC(=O)O)C(=O)N[C@@H](CCC(N)=O)C(=O)N[C@@H](C)C(=O)N[C@@H](CCC(=O)O)C(=O)N[C@@H](CCCCN)C(=O)N[C@@H](CC(N)=O)C(=O)N[C@@H](CCCCN)C(=O)N[C@@H](CCC(N)=O)C(=O)N[C@H](C(=O)N[C@@H](CC(C)C)C(=O)N[C@@H](C)C(=O)N[C@@H](CCC(N)=O)C(=O)N[C@H](C(N)=O)C(C)C)[C@@H](C)CC)[C@@H](C)CC)[C@@H](C)CC)C(C)C)C(C)C) [SEQ ID NO: 179]
0.02 nM |  | IVLSLD[dV]PTKLK([γGlu-Palmitoyl])QKLLKQERQRKE[Aib]EQAEKNKRILERV-NH2 (N-terminus assumed; SMILES CCCCCCCCCCCCCCCC(=O)N[C@@H](CCC(=O)NCCCC[C@H](NC(=O)[C@H](CC(C)C)NC(=O)[C@H](CCCCN)NC(=O)[C@@H](NC(=O)[C@@H]1CCCN1C(=O)[C@H](NC(=O)[C@H](CC(=O)O)NC(=O)[C@H](CC(C)C)NC(=O)[C@H](CO)NC(=O)[C@H](CC(C)C)NC(=O)[C@@H](NC(=O)[C@@H](N)[C@@H](C)CC)C(C)C)C(C)C)[C@@H](C)O)C(=O)N[C@@H](CCC(N)=O)C(=O)N[C@@H](CCCCN)C(=O)N[C@@H](CC(C)C)C(=O)N[C@@H](CC(C)C)C(=O)N[C@@H](CCCCN)C(=O)N[C@@H](CCC(N)=O)C(=O)N[C@@H](CCC(=O)O)C(=O)N[C@@H](CCCNC(=N)N)C(=O)N[C@@H](CCC(N)=O)C(=O)N[C@@H](CCCNC(=N)N)C(=O)N[C@@H](CCCCN)C(=O)N[C@@H](CCC(=O)O)C(=O)NC(C)(C)C(=O)N[C@@H](CCC(=O)O)C(=O)N[C@@H](CCC(N)=O)C(=O)N[C@@H](C)C(=O)N[C@@H](CCC(=O)O)C(=O)N[C@@H](CCCCN)C(=O)N[C@@H](CC(N)=O)C(=O)N[C@@H](CCCCN)C(=O)N[C@@H](CCCNC(=N)N)C(=O)N[C@H](C(=O)N[C@@H](CC(C)C)C(=O)N[C@@H](CCC(=O)O)C(=O)N[C@@H](CCCNC(=N)N)C(=O)N[C@H](C(N)=O)C(C)C)[C@@H](C)CC)C(=O)O) [SEQ ID NO: 21]
0.04 nM | 3.77 nM | IVLSLD[dV]PIKLK([AEEA-AEEA-γGlu-C20 diacid])QILLKQERQKKQRQQAEKNKQILAQV-NH2 (N-terminus assumed; SMILES CC[C@H](C)[C@H](N)C(=O)N[C@H](C(=O)N[C@@H](CC(C)C)C(=O)N[C@@H](CO)C(=O)N[C@@H](CC(C)C)C(=O)N[C@@H](CC(=O)O)C(=O)N[C@@H](C(=O)N1CCC[C@H]1C(=O)N[C@H](C(=O)N[C@@H](CCCCN)C(=O)N[C@@H](CC(C)C)C(=O)N[C@@H](CCCCNC(=O)COCCOCCNC(=O)COCCOCCNC(=O)CC[C@H](NC(=O)CCCCCCCCCCCCCCCCCCC(=O)O)C(=O)O)C(=O)N[C@@H](CCC(N)=O)C(=O)N[C@H](C(=O)N[C@@H](CC(C)C)C(=O)N[C@@H](CC(C)C)C(=O)N[C@@H](CCCCN)C(=O)N[C@@H](CCC(N)=O)C(=O)N[C@@H](CCC(=O)O)C(=O)N[C@@H](CCCNC(=N)N)C(=O)N[C@@H](CCC(N)=O)C(=O)N[C@@H](CCCCN)C(=O)N[C@@H](CCCCN)C(=O)N[C@@H](CCC(N)=O)C(=O)N[C@@H](CCCNC(=N)N)C(=O)N[C@@H](CCC(N)=O)C(=O)N[C@@H](CCC(N)=O)C(=O)N[C@@H](C)C(=O)N[C@@H](CCC(=O)O)C(=O)N[C@@H](CCCCN)C(=O)N[C@@H](CC(N)=O)C(=O)N[C@@H](CCCCN)C(=O)N[C@@H](CCC(N)=O)C(=O)N[C@H](C(=O)N[C@@H](CC(C)C)C(=O)N[C@@H](C)C(=O)N[C@@H](CCC(N)=O)C(=O)N[C@H](C(N)=O)C(C)C)[C@@H](C)CC)[C@@H](C)CC)[C@@H](C)CC)C(C)C)C(C)C) [SEQ ID NO: 178]
